Laboratory results reported in publication PMC8307404, “Crystal Structure-Guided Design of Bisubstrate Inhibitors and Photoluminescent Probes for Protein Kinases of the PIM Family” (Molecules, 2021).
Square brackets hold non-standard residues; d marks the D form. Peptide text beside a SMILES is read from it. * marks the point of attachment. X3 = O=C(CCCCCNCc1nc2c(sc3cc(Br)cnc32)c(=O)[nH]1)*

Assays:
Assay in all cases: Kinase profiling (radiometric filter-binding)
Assay type in all cases: biochemical
IR = IR (Homo sapiens, UniProt P06213); conditions: 1 µM inhibitor, read-out: Residual activity, %
IR, sequence (P06213 28-1382): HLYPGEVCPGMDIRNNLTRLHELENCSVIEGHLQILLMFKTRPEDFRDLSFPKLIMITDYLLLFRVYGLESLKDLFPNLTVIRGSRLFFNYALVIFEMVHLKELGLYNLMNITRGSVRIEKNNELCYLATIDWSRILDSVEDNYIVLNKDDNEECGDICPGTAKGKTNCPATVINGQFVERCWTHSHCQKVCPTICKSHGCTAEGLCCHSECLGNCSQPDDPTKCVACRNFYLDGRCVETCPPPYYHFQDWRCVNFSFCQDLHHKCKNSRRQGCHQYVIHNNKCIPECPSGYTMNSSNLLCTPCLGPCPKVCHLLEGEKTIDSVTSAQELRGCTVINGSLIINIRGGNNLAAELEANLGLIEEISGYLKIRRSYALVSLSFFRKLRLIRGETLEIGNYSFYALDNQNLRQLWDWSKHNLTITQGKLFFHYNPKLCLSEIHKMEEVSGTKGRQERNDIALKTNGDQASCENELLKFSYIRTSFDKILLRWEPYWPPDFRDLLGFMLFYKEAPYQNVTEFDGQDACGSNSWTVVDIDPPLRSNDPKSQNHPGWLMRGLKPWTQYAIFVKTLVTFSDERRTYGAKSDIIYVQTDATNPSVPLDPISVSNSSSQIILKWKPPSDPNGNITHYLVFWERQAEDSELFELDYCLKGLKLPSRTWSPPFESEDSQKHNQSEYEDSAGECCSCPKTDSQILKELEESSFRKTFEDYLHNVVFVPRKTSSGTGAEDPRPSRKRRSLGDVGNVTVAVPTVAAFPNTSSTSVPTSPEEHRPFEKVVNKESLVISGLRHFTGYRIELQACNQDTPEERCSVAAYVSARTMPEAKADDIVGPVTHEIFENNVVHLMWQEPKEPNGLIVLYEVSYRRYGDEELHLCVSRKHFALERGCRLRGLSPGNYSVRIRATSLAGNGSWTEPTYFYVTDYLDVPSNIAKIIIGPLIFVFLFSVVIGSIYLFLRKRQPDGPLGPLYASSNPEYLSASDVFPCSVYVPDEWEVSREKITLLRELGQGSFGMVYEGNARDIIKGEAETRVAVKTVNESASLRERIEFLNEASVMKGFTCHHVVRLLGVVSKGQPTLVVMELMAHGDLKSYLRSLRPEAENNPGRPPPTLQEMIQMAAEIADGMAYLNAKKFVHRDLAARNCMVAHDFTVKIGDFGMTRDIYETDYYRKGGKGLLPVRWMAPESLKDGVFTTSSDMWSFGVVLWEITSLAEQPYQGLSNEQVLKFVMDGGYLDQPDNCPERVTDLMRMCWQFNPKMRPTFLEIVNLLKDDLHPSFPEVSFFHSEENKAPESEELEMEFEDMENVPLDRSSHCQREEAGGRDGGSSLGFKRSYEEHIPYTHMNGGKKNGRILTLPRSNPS
Summary of the method: (§1)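 Activity remaining (% of control without inhibitor) at 1 µM final compound; human kinases, ATP ≤ KM, radiometric filter binding.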

MARK1 = MARK1 (Homo sapiens, UniProt Q9P0L2); conditions: MARK1, 1 µM inhibitor; read-out: Residual activity, %
MARK1, sequence (Q9P0L2 whole entry): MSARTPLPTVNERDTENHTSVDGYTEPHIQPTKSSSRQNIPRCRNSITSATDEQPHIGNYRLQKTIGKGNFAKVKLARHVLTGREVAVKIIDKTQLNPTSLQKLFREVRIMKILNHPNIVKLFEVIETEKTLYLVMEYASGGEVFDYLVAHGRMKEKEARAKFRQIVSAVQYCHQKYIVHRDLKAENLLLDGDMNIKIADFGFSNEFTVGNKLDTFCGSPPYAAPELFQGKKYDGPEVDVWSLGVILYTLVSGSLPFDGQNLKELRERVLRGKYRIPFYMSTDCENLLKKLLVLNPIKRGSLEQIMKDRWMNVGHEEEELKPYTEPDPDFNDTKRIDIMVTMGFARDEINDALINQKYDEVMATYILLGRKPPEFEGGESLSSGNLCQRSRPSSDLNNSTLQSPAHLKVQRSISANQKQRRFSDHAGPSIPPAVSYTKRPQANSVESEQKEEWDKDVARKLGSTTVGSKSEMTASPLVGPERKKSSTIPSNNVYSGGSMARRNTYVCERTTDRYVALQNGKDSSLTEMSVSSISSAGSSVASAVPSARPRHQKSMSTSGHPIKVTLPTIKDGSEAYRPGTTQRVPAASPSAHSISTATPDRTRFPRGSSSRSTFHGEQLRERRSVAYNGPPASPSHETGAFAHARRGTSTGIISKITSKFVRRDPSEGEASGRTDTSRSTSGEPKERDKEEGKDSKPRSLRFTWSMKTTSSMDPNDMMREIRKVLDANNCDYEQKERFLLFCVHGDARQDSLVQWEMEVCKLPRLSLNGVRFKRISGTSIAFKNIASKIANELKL
Summary of the method: as §1

ASK1 = target: T1, ASK1 (Homo sapiens, UniProt Q99683); conditions: ASK1, 1 µM inhibitor; read-out: Residual activity, %
T1 sequence (Q99683 1-1374): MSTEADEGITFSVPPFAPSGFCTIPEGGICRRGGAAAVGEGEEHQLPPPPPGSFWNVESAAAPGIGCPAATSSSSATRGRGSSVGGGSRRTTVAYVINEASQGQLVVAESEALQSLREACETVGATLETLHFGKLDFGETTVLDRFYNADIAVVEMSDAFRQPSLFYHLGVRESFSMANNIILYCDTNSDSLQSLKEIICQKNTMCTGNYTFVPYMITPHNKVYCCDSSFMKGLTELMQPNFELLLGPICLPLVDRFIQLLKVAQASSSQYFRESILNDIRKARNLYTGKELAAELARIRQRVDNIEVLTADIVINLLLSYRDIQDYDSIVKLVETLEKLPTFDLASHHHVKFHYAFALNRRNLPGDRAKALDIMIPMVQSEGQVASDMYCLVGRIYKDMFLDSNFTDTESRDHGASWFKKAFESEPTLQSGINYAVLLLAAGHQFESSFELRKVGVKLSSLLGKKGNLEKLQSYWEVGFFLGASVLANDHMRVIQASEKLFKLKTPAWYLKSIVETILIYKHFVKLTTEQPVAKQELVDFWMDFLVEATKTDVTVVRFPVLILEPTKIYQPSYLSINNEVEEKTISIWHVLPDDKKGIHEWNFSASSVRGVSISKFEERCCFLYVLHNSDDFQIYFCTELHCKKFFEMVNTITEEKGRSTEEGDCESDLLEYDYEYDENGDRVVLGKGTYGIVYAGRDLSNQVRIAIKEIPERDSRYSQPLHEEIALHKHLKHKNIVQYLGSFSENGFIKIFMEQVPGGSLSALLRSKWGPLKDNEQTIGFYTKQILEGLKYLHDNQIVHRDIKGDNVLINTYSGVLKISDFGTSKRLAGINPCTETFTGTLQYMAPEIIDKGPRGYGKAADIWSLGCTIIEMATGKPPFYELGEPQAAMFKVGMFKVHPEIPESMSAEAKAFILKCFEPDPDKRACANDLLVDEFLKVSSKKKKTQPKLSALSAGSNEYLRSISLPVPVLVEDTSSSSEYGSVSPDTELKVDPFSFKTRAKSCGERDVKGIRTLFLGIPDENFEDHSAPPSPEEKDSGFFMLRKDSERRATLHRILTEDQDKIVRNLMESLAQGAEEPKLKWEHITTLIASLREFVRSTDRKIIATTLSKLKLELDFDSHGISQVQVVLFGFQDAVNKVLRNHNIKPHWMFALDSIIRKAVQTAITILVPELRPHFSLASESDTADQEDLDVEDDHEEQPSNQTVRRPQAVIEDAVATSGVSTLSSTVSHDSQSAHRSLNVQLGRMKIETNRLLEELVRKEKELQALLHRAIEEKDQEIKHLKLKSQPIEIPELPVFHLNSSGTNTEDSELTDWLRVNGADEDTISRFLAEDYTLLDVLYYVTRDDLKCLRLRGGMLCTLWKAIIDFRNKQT
Summary of the method: as §1

EIF2AK3 = target: T2, EIF2AK3 (Homo sapiens, UniProt Q9NZJ5); conditions: EIF2AK3, 1 µM inhibitor; read-out: Residual activity, %
T2 sequence (Q9NZJ5 30-1116): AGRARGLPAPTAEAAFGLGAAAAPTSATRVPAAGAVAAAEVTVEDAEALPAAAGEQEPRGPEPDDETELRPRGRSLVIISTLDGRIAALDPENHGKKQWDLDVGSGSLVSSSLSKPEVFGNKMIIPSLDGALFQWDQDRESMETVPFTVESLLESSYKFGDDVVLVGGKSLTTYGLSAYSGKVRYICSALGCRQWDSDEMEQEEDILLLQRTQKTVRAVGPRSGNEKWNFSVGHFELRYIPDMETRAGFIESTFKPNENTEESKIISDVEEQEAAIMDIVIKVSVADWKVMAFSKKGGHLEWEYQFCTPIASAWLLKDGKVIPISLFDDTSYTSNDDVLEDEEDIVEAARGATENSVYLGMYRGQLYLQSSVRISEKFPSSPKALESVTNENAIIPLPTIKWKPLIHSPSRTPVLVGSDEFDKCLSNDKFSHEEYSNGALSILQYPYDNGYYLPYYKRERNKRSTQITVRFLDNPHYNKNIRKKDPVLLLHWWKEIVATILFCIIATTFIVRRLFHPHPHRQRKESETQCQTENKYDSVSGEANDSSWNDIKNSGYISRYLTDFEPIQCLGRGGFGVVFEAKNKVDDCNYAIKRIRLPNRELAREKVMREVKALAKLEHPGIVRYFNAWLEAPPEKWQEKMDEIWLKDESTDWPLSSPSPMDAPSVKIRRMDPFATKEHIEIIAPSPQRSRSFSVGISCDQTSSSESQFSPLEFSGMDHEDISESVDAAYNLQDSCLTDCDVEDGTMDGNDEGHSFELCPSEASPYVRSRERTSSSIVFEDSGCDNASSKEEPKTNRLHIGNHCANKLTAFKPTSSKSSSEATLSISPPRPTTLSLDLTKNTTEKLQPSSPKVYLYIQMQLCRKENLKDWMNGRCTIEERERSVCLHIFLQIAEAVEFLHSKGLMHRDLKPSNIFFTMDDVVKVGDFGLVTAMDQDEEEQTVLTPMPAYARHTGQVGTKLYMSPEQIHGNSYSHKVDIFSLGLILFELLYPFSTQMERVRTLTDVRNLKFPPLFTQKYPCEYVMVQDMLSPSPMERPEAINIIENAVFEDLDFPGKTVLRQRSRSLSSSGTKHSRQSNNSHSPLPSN
Summary of the method: as §1

**Q.** `N=C(N)NCCC[C@@H](NC(=O)CNC(=O)[C@@H](CCCNC(=N)N)NC(=O)[C@@H](CCCNC(=N)N)NC(=O)CCCCCCCNCc1nc2c(sc3cc(Br)cnc32)c(=O)[nH]1)C(=O)N[C@H](CCCCN)C(N)=O` [Compound 1, BPTP-Aoc-(D-Arg)2-Gly-D-Arg-D-Lys-NH2] was tested. Which remaining activity at 1 µM (IR) did it give?
**A.** The remaining activity at 1 µM was 122 ± 7%.

**Q.** What about the remaining activity at 1 µM (MARK1) of the same compound?
**A.** The remaining activity at 1 µM was 110 ± 15%.

**Q.** And the remaining activity at 1 µM (ASK1)?
**A.** Its remaining activity at 1 µM is 99%.

**Q.** And the remaining activity at 1 µM (EIF2AK3)?
**A.** The remaining activity at 1 µM was 94 ± 7%.

**Q.** `N=C(N)NCCC[C@@H](NC(=O)CCCCCNCc1nc2c(sc3cc(Br)cnc32)c(=O)[nH]1)C(=O)N[C@H](CCCNC(=N)N)C(=O)N[C@H](CCCNC(=N)N)C(=O)N[C@H](CCCNC(=N)N)C(=O)N[C@H](CCCNC(=N)N)C(=O)N[C@H](CCCNC(=N)N)C(=O)N[C@H](CCCCN)C(N)=O` [ARC-3126, BPTP-Ahx-(D-Arg)6-D-Lys-NH2] (X3-[dR][dR][dR][dR][dR][dR][dK]-NH2) was tested. Which remaining activity at 1 µM (IR) did it give?
**A.** Its remaining activity at 1 µM is 117 ± 6%.

**Q.** What about the remaining activity at 1 µM (MARK1) of the same compound?
**A.** Its remaining activity at 1 µM is 94%.

**Q.** And the remaining activity at 1 µM (ASK1)?
**A.** The remaining activity at 1 µM was 121 ± 11%.

**Q.** And the remaining activity at 1 µM (EIF2AK3)?
**A.** The remaining activity at 1 µM was 60 ± 6%.

**Q.** For `N=C(N)NCCC[C@@H](NC(=O)CCCCCNC(=O)Cn1cnc2c(I)c(I)c(I)c(I)c21)C(=O)N[C@H](CCCNC(=N)N)C(=O)N[C@H](CCCNC(=N)N)C(=O)N[C@H](CCCNC(=N)N)C(=O)N[C@H](CCCNC(=N)N)C(=O)N[C@H](CCCNC(=N)N)C(=O)N[C@H](CCCCN)C(N)=O` [ARC-3125, TIBI-CH2-C(=O)-Ahx-(D-Arg)6-D-Lys-NH2], which remaining activity at 1 µM (IR) is on record?
**A.** The remaining activity at 1 µM was 22 ± 6%.

**Q.** And the remaining activity at 1 µM (MARK1)?
**A.** Its remaining activity at 1 µM is 76 ± 4%.

**Q.** And the remaining activity at 1 µM (ASK1)?
**A.** Its remaining activity at 1 µM is 93%.

**Q.** And the remaining activity at 1 µM (EIF2AK3)?
**A.** Its remaining activity at 1 µM is 11 ± 11%.

**Q.** How did the remaining activity at 1 µM (IR) turn out when `N=C(N)NCCC[C@@H](NC(=O)CNC(=O)[C@@H](CCCNC(=N)N)NC(=O)[C@@H](CCCNC(=N)N)NC(=O)CCCCCCCNCc1nc2c(sc3ccc(Br)cc32)c(=O)[nH]1)C(=O)N[C@H](CCCCN)C(N)=O` [Compound 2, BBTP-Aoc-(D-Arg)2-Gly-D-Arg-D-Lys-NH2] was run?
**A.** Its remaining activity at 1 µM is 139 ± 35%.

**Q.** And the remaining activity at 1 µM (MARK1)?
**A.** The remaining activity at 1 µM was 113 ± 1%.

**Q.** And the remaining activity at 1 µM (ASK1)?
**A.** The remaining activity at 1 µM was 102 ± 5%.

**Q.** And the remaining activity at 1 µM (EIF2AK3)?
**A.** The remaining activity at 1 µM was 98 ± 5%.

**Q.** How did the remaining activity at 1 µM (IR) turn out when `N=C(N)NCCC[C@@H](NC(=O)CNC(=O)[C@@H](CCCNC(=N)N)NC(=O)[C@@H](CCCNC(=N)N)NC(=O)Cn1cc(CNCc2nc3c(sc4ccc(Br)cc43)c(=O)[nH]2)nn1)C(=O)N[C@H](CCCCN)C(N)=O` [Compound 3, BBTP-Amt-(D-Arg)2-Gly-D-Arg-D-Lys-NH2] was run?
**A.** Its remaining activity at 1 µM is 113 ± 23%.

**Q.** And the remaining activity at 1 µM (MARK1)?
**A.** The remaining activity at 1 µM was 106 ± 2%.

**Q.** What about the remaining activity at 1 µM (ASK1) of the same compound?
**A.** The remaining activity at 1 µM was 101 ± 2%.

**Q.** What about the remaining activity at 1 µM (EIF2AK3) of the same compound?
**A.** The remaining activity at 1 µM was 113 ± 13%.
